Experimental data from publication PMC9482650, “Quantitative fragmentomics allow affinity mapping of interactomes” (Nature Communications, 2022).

Columns and labels:
Test in all cases: holdup assay
Parameters in all cases: key: below the threshold = too weak to quantify, mostly under pKd 3.1 to 4
GRIP2_4, Q9C0E4 = molecular target: GRIP2_4, Q9C0E4
FRMPD1, Q5SYB0 = molecular target: T1, FRMPD1, Q5SYB0
T1 sequence (Q5SYB0 52-145, limits assumed, looked up): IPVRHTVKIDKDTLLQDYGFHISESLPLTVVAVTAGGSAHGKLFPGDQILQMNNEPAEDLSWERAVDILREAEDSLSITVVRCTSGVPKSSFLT

SNTA1, Q13424 = molecular target: T2, SNTA1, Q13424
T2 sequence (Q13424 82-180, limits assumed, looked up): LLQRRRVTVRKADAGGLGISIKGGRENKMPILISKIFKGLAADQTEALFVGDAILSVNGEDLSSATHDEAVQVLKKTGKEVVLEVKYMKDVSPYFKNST

MAGI2_4, Q86UL8 = molecular target: MAGI2_4, Q86UL8
SCRIB_2, Q14160 = molecular target: SCRIB_2, Q14160
TJP3_3, O95049 = molecular target: T3, TJP3_3, O95049
T3 sequence (O95049 375-456, limits assumed, looked up): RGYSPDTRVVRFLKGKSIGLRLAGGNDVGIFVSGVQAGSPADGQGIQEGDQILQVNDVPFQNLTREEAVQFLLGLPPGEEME

DLG1_3, Q12959 = molecular target: DLG1_3, Q12959
MAGI2_5, Q86UL8 = molecular target: MAGI2_5, Q86UL8
PDZD2_2, O15018 = molecular target: T4, PDZD2_2, O15018
T4 sequence (O15018 329-429, limits assumed, looked up): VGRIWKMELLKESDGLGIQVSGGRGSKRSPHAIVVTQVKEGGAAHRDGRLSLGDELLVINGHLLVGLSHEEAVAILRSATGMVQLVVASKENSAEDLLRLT

NHERF3_3, Q5T2W1 = molecular target: T5, NHERF3_3, Q5T2W1
T5 sequence (Q5T2W1 238-333, limits assumed, looked up): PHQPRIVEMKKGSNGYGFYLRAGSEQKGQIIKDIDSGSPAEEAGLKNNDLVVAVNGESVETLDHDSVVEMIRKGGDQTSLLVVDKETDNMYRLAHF

ARHGEF12, Q9NZN5-2 = molecular target: ARHGEF12, Q9NZN5-2
SNTG1, Q9NSN8 = molecular target: T6, SNTG1, Q9NSN8
T6 sequence (Q9NSN8 52-150, limits assumed, looked up): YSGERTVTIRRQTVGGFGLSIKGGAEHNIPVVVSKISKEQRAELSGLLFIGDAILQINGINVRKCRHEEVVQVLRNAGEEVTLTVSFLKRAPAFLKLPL

MAGI2_3, Q86UL8 = molecular target: MAGI2_3, Q86UL8
SIPA1L2, Q9P2F8 = molecular target: T7, SIPA1L2, Q9P2F8
T7 sequence (Q9P2F8 945-1036, limits assumed, looked up): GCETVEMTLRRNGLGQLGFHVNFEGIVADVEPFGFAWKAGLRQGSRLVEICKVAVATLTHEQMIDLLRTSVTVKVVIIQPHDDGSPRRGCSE

LNX1_3, Q8TBB1 = molecular target: LNX1_3, Q8TBB1
LDB3, O75112 = molecular target: LDB3, O75112
Inadl_5, Q8NI35 = molecular target: Inadl_5, Q8NI35
NHERF3_4, Q5T2W1 = molecular target: T8, NHERF3_4, Q5T2W1
T8 sequence (Q5T2W1 373-468, limits assumed, looked up): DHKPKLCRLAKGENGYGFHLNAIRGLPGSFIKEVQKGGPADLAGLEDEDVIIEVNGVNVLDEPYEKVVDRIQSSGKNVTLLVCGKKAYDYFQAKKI

GRIP1_2, Q9Y3R0 = molecular target: T9, GRIP1_2, Q9Y3R0
T9 sequence (Q9Y3R0 145-248, limits assumed, looked up): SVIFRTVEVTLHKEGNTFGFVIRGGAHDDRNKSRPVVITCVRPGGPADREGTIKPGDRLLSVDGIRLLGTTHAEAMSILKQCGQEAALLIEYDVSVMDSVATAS

PICK1, Q9NRD5 = molecular target: PICK1, Q9NRD5
Inadl_6, Q8NI35 = molecular target: Inadl_6, Q8NI35
CARD11, Q9BXL7 = molecular target: T10, CARD11, Q9BXL7
T10 sequence (Q9BXL7 662-765, limits assumed, looked up): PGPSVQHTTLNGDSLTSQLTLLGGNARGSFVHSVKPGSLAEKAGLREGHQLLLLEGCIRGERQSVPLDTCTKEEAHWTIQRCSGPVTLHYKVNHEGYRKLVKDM

GIPC2, Q8TF65 = molecular target: GIPC2, Q8TF65
HTRA1, Q92743 = molecular target: HTRA1, Q92743
HTRA4, P83105 = molecular target: T11, HTRA4, P83105
T11 sequence (P83105 378-476, limits assumed, looked up): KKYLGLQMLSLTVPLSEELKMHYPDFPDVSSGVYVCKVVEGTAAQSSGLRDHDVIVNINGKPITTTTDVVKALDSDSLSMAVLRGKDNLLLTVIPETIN

PTPN3, P26045 = molecular target: PTPN3, P26045
NHERF4_2, Q86UT5 = molecular target: NHERF4_2, Q86UT5
[1] = plain residues with an end cap or a label only (N-terminal biotin on a linker: (peg)3)
[2] = plain residues with an end cap or a label only (N-terminal biotin on a linker: ado-ado)

Sequence of ARHGEF12, Q9NZN5-2 (Q9NZN5 other isoform, or with tags, fused parts or gaps): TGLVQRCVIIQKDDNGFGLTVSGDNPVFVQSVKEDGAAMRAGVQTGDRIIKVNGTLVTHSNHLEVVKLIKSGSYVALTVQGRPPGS
Sequence of HTRA1, Q92743 (Q92743 360-477): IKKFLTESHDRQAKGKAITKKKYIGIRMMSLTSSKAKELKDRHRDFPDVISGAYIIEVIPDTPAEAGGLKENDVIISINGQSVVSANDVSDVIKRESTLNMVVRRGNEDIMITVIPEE
Sequence of PTPN3, P26045 (P26045 505-587): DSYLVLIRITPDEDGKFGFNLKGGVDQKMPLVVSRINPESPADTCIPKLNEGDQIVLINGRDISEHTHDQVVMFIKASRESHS
Sequence of SCRIB_2, Q14160 (Q14160 857-960): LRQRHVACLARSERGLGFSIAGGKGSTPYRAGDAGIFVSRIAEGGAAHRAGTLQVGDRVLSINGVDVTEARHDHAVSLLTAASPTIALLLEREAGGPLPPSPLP
Sequence of GIPC2, Q8TF65 (Q8TF65 112-203): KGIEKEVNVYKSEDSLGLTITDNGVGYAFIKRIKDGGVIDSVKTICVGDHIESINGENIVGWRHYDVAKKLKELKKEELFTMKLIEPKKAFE
Sequence of NHERF4_2, Q86UT5 (Q86UT5 220-308): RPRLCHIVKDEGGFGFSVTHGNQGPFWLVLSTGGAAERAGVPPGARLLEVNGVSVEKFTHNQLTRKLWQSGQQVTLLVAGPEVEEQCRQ
Sequence of LDB3, O75112 (O75112 1-94): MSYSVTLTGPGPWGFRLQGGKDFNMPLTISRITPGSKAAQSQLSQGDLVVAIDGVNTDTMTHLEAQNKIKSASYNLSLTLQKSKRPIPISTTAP
Sequence of MAGI2_4, Q86UL8 (Q86UL8 772-865): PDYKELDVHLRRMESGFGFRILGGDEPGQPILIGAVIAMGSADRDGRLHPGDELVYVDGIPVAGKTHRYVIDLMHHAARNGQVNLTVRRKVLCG
Sequence of MAGI2_5, Q86UL8 (Q86UL8 915-1017): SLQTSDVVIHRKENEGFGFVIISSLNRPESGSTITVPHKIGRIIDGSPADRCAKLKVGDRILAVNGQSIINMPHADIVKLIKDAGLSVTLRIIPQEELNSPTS
Sequence of PICK1, Q9NRD5 (Q9NRD5 17-115): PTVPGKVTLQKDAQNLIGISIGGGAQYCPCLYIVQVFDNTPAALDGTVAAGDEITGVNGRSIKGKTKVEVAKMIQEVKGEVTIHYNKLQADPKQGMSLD
Sequence of Inadl_6, Q8NI35 (Q8NI35 1058-1167): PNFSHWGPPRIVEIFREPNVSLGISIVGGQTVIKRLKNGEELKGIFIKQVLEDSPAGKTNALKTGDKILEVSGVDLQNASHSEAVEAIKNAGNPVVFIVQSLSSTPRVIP
Sequence of MAGI2_3, Q86UL8 (Q86UL8 600-682): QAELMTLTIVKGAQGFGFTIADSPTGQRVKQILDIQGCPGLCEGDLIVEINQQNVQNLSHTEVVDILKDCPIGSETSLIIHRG
Sequence of LNX1_3, Q8TBB1 (Q8TBB1 500-596): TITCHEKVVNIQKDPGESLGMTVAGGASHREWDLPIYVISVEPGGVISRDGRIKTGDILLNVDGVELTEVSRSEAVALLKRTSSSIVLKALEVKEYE
Sequence of DLG1_3, Q12959 (Q12959 457-571): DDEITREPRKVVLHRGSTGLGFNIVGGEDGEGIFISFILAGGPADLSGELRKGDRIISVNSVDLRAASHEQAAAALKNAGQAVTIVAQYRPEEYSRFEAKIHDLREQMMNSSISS
Sequence of Inadl_5, Q8NI35 (Q8NI35 673-780): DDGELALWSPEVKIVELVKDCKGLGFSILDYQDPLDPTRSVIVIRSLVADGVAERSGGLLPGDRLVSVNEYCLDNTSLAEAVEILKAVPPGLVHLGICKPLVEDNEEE
Sequence of GRIP2_4, Q9C0E4 (Q9C0E4 446-548): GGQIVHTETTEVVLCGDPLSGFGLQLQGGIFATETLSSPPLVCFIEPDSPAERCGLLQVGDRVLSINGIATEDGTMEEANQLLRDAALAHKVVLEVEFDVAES

Binder: NLNSSEGVPDLLV [SARS-CoV-E, P59637]
- pKd (GRIP2_4, Q9C0E4; [1]): below the threshold
- pKd (FRMPD1, Q5SYB0; [1]): below the threshold
- pKd (SNTA1, Q13424; [1]): below the threshold
- pKd (MAGI2_4, Q86UL8; [1]): below the threshold
- pKd (SCRIB_2, Q14160; [1]): below the threshold
- pKd (TJP3_3, O95049; [1]): below the threshold
- pKd (DLG1_3, Q12959; [1]): below the threshold
- pKd (MAGI2_5, Q86UL8; [1]): below the threshold
- pKd (PDZD2_2, O15018; [1]): below the threshold
- pKd (NHERF3_3, Q5T2W1; [1]): below the threshold
- pKd (ARHGEF12, Q9NZN5-2; [1]): below the threshold
- pKd (SNTG1, Q9NSN8; [1]): below the threshold
- pKd (MAGI2_3, Q86UL8; [1]): below the threshold
- pKd (SIPA1L2, Q9P2F8; [1]): below the threshold
- pKd (LNX1_3, Q8TBB1; [1]): below the threshold
- pKd (LDB3, O75112; [1]): below the threshold
- pKd (Inadl_5, Q8NI35; [1]): below the threshold
- pKd (NHERF3_4, Q5T2W1; [1]): below the threshold
- pKd (GRIP1_2, Q9Y3R0; [1]): below the threshold
- pKd (PICK1, Q9NRD5; [1]): below the threshold
- pKd (Inadl_6, Q8NI35; [1]): below the threshold
- pKd (CARD11, Q9BXL7; [1]): below the threshold
- pKd (GIPC2, Q8TF65; [1]): below the threshold
- pKd (HTRA1, Q92743; [1]): 4.57
- pKd (HTRA4, P83105; [1]): below the threshold
- pKd (PTPN3, P26045; [1]): below the threshold
- pKd (NHERF4_2, Q86UT5; [1]): below the threshold

Binder: VYPNAKVELV [PDLIM4_iso2, P50479;P50479-1]
- pKd (GRIP2_4, Q9C0E4; [2]): below the threshold
- pKd (FRMPD1, Q5SYB0; [2]): below the threshold
- pKd (SNTA1, Q13424; [2]): below the threshold
- pKd (SCRIB_2, Q14160; [2]): below the threshold
- pKd (TJP3_3, O95049; [2]): below the threshold
- pKd (DLG1_3, Q12959; [2]): below the threshold
- pKd (MAGI2_5, Q86UL8; [2]): below the threshold
- pKd (PDZD2_2, O15018; [2]): below the threshold
- pKd (NHERF3_3, Q5T2W1; [2]): below the threshold
- pKd (ARHGEF12, Q9NZN5-2; [2]): below the threshold
- pKd (SNTG1, Q9NSN8; [2]): below the threshold
- pKd (MAGI2_3, Q86UL8; [2]): below the threshold
- pKd (SIPA1L2, Q9P2F8; [2]): below the threshold
- pKd (LNX1_3, Q8TBB1; [2]): below the threshold
- pKd (LDB3, O75112; [2]): below the threshold
- pKd (Inadl_5, Q8NI35; [2]): below the threshold
- pKd (NHERF3_4, Q5T2W1; [2]): below the threshold
- pKd (GRIP1_2, Q9Y3R0; [2]): below the threshold
- pKd (PICK1, Q9NRD5; [2]): 4.26
- pKd (Inadl_6, Q8NI35; [2]): below the threshold
- pKd (CARD11, Q9BXL7; [2]): below the threshold
- pKd (GIPC2, Q8TF65; [2]): below the threshold
- pKd (HTRA1, Q92743; [2]): 4.62
- pKd (HTRA4, P83105; [2]): 4.55
- pKd (NHERF4_2, Q86UT5; [2]): below the threshold

Binder: YLEPVLSSEL [ATP2A2, P16615;P16615-3]
- pKd (GRIP2_4, Q9C0E4; [2]): below the threshold
- pKd (FRMPD1, Q5SYB0; [2]): below the threshold
- pKd (SNTA1, Q13424; [2]): below the threshold
- pKd (MAGI2_4, Q86UL8; [2]): below the threshold
- pKd (TJP3_3, O95049; [2]): below the threshold
- pKd (DLG1_3, Q12959; [2]): below the threshold
- pKd (MAGI2_5, Q86UL8; [2]): 4.82
- pKd (PDZD2_2, O15018; [2]): 4.41
- pKd (NHERF3_3, Q5T2W1; [2]): below the threshold
- pKd (ARHGEF12, Q9NZN5-2; [2]): 5.38
- pKd (SNTG1, Q9NSN8; [2]): below the threshold
- pKd (MAGI2_3, Q86UL8; [2]): below the threshold
- pKd (SIPA1L2, Q9P2F8; [2]): below the threshold
- pKd (LNX1_3, Q8TBB1; [2]): below the threshold
- pKd (LDB3, O75112; [2]): below the threshold
- pKd (Inadl_5, Q8NI35; [2]): below the threshold
- pKd (NHERF3_4, Q5T2W1; [2]): 4.8
- pKd (GRIP1_2, Q9Y3R0; [2]): below the threshold
- pKd (PICK1, Q9NRD5; [2]): below the threshold
- pKd (Inadl_6, Q8NI35; [2]): below the threshold
- pKd (CARD11, Q9BXL7; [2]): below the threshold
- pKd (GIPC2, Q8TF65; [2]): below the threshold
- pKd (HTRA4, P83105; [2]): below the threshold
- pKd (PTPN3, P26045; [2]): 4.93
- pKd (NHERF4_2, Q86UT5; [2]): below the threshold

Binder: KSGKQTMLVV [TRIM29, Q14134;Q14134-2]
- pKd (GRIP2_4, Q9C0E4; [2]): below the threshold
- pKd (FRMPD1, Q5SYB0; [2]): below the threshold
- pKd (SCRIB_2, Q14160; [2]): below the threshold
- pKd (TJP3_3, O95049; [2]): below the threshold
- pKd (MAGI2_5, Q86UL8; [2]): below the threshold
- pKd (PDZD2_2, O15018; [2]): below the threshold
- pKd (MAGI2_3, Q86UL8; [2]): below the threshold
- pKd (SIPA1L2, Q9P2F8; [2]): below the threshold
- pKd (LNX1_3, Q8TBB1; [2]): below the threshold
- pKd (LDB3, O75112; [2]): below the threshold
- pKd (Inadl_5, Q8NI35; [2]): below the threshold
- pKd (NHERF3_4, Q5T2W1; [2]): below the threshold
- pKd (GRIP1_2, Q9Y3R0; [2]): below the threshold
- pKd (PICK1, Q9NRD5; [2]): below the threshold
- pKd (Inadl_6, Q8NI35; [2]): below the threshold
- pKd (CARD11, Q9BXL7; [2]): below the threshold
- pKd (GIPC2, Q8TF65; [2]): below the threshold
- pKd (HTRA1, Q92743; [2]): 4.42
- pKd (HTRA4, P83105; [2]): 4.14
- pKd (NHERF4_2, Q86UT5; [2]): below the threshold

Binder: LPAHHNATRL [SLC34A1, Q06495;Q06495-1]
- pKd (GRIP2_4, Q9C0E4; [2]): below the threshold
- pKd (FRMPD1, Q5SYB0; [2]): below the threshold
- pKd (MAGI2_4, Q86UL8; [2]): below the threshold
- pKd (SCRIB_2, Q14160; [2]): below the threshold
- pKd (TJP3_3, O95049; [2]): below the threshold
- pKd (DLG1_3, Q12959; [2]): below the threshold
- pKd (PDZD2_2, O15018; [2]): below the threshold
- pKd (NHERF3_3, Q5T2W1; [2]): 4.47
- pKd (ARHGEF12, Q9NZN5-2; [2]): 4.44
- pKd (SNTG1, Q9NSN8; [2]): below the threshold
- pKd (MAGI2_3, Q86UL8; [2]): below the threshold
- pKd (SIPA1L2, Q9P2F8; [2]): below the threshold
- pKd (LNX1_3, Q8TBB1; [2]): below the threshold
- pKd (LDB3, O75112; [2]): below the threshold
- pKd (Inadl_5, Q8NI35; [2]): below the threshold
- pKd (NHERF3_4, Q5T2W1; [2]): 4.09
- pKd (GRIP1_2, Q9Y3R0; [2]): below the threshold
- pKd (PICK1, Q9NRD5; [2]): 4.19
- pKd (Inadl_6, Q8NI35; [2]): below the threshold
- pKd (CARD11, Q9BXL7; [2]): below the threshold
- pKd (GIPC2, Q8TF65; [2]): below the threshold
- pKd (HTRA4, P83105; [2]): 3.96
- pKd (PTPN3, P26045; [2]): 4
- pKd (NHERF4_2, Q86UT5; [2]): below the threshold
